Test results published in paper PMC5300155, “Biochemical and biophysical investigations of the interaction between human glucokinase and pro-apoptotic BAD” (PLoS ONE, 2017).
Each block holds one molecule with its values, some of them ahead of it.

Legend:
[1] = target: T1, Bcl-xL (Homo sapiens, UniProt Q07817, DEL45-84); assay: Fluorescence polarization competition with f-BH3 for binding to Bcl-xL
T1 construct: made in house
Method: Exon 1 of human bcl-xl lacking the C-terminal residues 189–233 was obtained from Stanley Korsmeyer (Addgene plasmid 8755) and site-directed mutagenesis was performed to create the Δ45–84, Δ210–233 variant. Bcl-xL was expressed and purified using a modified procedure described previously. Briefly, Bcl-xL was purified by nickel affinity chromatography and dialyzed against potassium phosphate buffer (20 mM, pH 7.4) containing NaCl (50 mM), EDTA (1 mM), and DTT (10 mM). Protein was applied to a Superdex 200 10/30 HR size-exclusion column, at a flow rate of 0.02 mL/min, to remove aggregate and oligomers prior to binding assays.
A fluorescence polarization assay developed by Zhang, et al. was utilized to measure interactions between BAD and its binding partners. Two 21-residue FITC-labeled peptides containing the BH3 domain of BAD were synthesized and purified to >95% by Peptide2.0 (f-BH3 = NLWAAQRYGRELRRMSDK(FITC)FVD; f-pBH3 = NLWAAQRYGRELRRM(p)SDK(FITC) FVD). Polarization was measured at room temperature with an excitation wavelength of 485 nm and an emission wavelength of 530 nm using a SpectraMax M5 microplate reader (Molecular Devices). Experiments to measure binding constants of the fluorescent peptides to Bcl-xL or GCK were performed in black 96-well plates. Each well contained 15 nM peptide, 60 μL BAD buffer (0.1 M Tris, 0.1 M KCl, 0.5 M arginine, 2.5 mM CHAPS, 5 mM TCEP, 10% glycerol, pH 8.5) and variable concentrations of Bcl-xL (0–2.25 μM) or GCK (0–400 μM) in assay buffer (20 mM phosphate buffer, pH 7.4, 1 mM EDTA, 50 mM NaCl, 10 mM DTT) in a final volume of 120 μL. High GCK concentrations were chosen in an effort to detect a signal indicating a binding event. Assays containing GCK also contained 250 mM glucose. […] Plates were incubated at room temperature in the dark for 15 min prior to polarization measurements.

[2] = target: T2, human pancreatic GCK (Homo sapiens, UniProt P35557); assay: GCK activity, G6PDH-linked assay (lab's routine assay, 25°C); format: biochemical
T2 construct: hexahistidine (N); made in house; host or cells: glucokinase auxotroph BM5340(DE3)
T2 sequence (P35557 1-465): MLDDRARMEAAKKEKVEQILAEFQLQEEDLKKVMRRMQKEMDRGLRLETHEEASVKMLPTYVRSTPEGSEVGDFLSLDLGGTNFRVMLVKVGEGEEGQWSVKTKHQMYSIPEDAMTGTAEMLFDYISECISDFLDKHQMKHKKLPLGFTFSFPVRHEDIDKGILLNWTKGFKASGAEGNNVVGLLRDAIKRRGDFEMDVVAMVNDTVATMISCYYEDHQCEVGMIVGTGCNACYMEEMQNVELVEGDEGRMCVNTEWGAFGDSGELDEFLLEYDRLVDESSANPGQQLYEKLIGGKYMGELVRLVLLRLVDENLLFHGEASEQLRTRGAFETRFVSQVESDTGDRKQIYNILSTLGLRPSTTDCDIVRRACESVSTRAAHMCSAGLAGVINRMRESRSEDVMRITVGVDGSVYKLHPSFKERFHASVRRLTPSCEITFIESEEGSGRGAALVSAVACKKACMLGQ
Method: Recombinant human pancreatic GCK containing an N-terminal hexahistidine tag was produced in the glucokinase auxotroph BM5340(DE3) and purified using a previously described procedure. TEV protease was expressed as a GST-fusion protein from a pGEX plasmid encoding the S219V variant, provided by David Waugh (Addgene plasmid 8827). Expression was induced with IPTG (1 mM) for 4 h at 30°C. Cell pellets were resuspended in Tris buffer (50 mM, pH 8.0) containing NaCl (100 mM), glycerol (10% v/v), benzamidine (1 mM) and dithiothreitol (10 mM) and lysed via French Press. Polyethyleneimine (0.1%) was added to the lysate and protein was purified on a glutathione-affinity column (GSTrap, GE Sciences). TEV protease was flash frozen and stored at -80°C for up to 1 month.
GCK activity was assayed using a glucose 6-phosphate dehydrogenase (G6PDH)-linked assay at 25°C. 50 nM GCK was assayed in buffer containing HEPES (100 mM, pH 7.4), KCl (50 mM), NADP^+ (0.5 mM), DTT (10 mM), MgCl2 (7 mM), G6PDH (1.5 U) and glucose (0–100 mM) in a total volume of […]. Addition of ATP (6 mM) initiated the reaction. Production of NADPH was measured at 340 nm. To determine the effect of BAD on GCK activity, 5 μL of BAD or buffer control was added to the reaction in a final volume of 100 μL. K0.5 values were determined by fitting to the Hill equation. The effect of BAD on GCK activity is reported as the percent rate increase at individual glucose concentrations, calculated as the average of a minimum of four rates of BAD-containing assays divided by the average of rates of BAD buffer-containing assays. The results represent the average of at least three independent preparations of pure BAD.

[3] = Circular dichroism spectroscopy (secondary structure); format: physicochemical; conditions: far UV CD, 25°C, pH 7.8, 3–15 μM, CDPro
Method: Proteins were dialyzed overnight into potassium phosphate buffer (50 mM, pH 7.8) containing KCl (50 mM), glycerol (5% v/v), and TCEP (4 mM). CD spectra were recorded on an AVIV 202 CD spectrometer at 25°C with protein concentrations ranging from 3–15 μM. Spectra were recorded from 200–260 nm in 10 mm pathlength cuvettes using a 1 nm step resolution and 3 s integration time. Three scans were recorded per sample, averaged, and baseline subtracted with appropriate buffer controls. CD signals were converted to molar ellipticity and deconvoluted using CDPro Software.

[4] = produced in Escherichia coli; ref [30]; cited from earlier work
Excerpt: To facilitate biochemical characterization of the BAD:GCK complex, we sought a method to produce functional, recombinant human BAD. Several groups have used microbial hosts to produce BAD, however, functional characterization of the resulting protein was limited.

T1 sequence (Q07817 with tags, fused parts or gaps DEL45-84): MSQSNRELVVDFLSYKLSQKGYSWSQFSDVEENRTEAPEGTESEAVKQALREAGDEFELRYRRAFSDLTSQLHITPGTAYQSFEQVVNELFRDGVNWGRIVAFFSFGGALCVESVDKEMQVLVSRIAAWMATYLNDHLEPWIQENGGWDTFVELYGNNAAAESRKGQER

Molecule: NLWAAQRYGRELRRM(p)SDKFVD [pBH3, 21-residue phosphorylated peptide containing the BH3 domain of BAD]
Ability to interact with Bcl-xL (in words) ([1]; ITC and fluorescence polarization assays): significantly impaired in their ability to interact with Bcl-xL | Hill coefficient H of GCK in presence of pBH3 ([2]; Fig 6B, GCK alone: H = 1.4): 1.5 | K0.5 (glucose) of GCK in presence of pBH3 ([2]; Fig 6B, GCK alone: K0.5 = 4.6 mM, Hill equation fit): 3.7 mM | kcat of GCK in presence of pBH3 ([2]; Fig 6B, GCK alone: kcat = 33.2 s^-1): 31.4 s^-1 | Change in GCK activity, peptide up to 50 μM ([2]; peptide concentrations up to 50 μM): no change in GCK activity | Effect on kcat, K0.5 or Hill coefficient of GCK (peptide) ([2]; peptide up to 5 μM): does not impact the kcat, K0.5 or Hill coefficient of human GCK

IC50 ([1]; 200 nM f-BH3, 50 nM Bcl-xL, competitor 0–50 μM, room temperature, 15 min): 130 nM | Increase in GCK rate ([2]; 0.8 mM glucose, BAD-GST ≥ 2 μM, average of at least three independent BAD preparations): 10% | Increase in GCK activity (abstract) ([2]; high concentrations of recombinant BAD, glucose well below K0.5): < 15%
B1: BAD-GST: recombinant human BAD with N-terminal hexahistidine tag and C-terminal GST fusion, TEV consensus sequence between (protein)
chain: MFQIPEFEPSEQEDSSSAERGLGPSPAGDGPSGSGKHHRQAPGLLWDASHQQEQPTSSSHHGGAGAVEIRSRHSSYPAGTEDDEGMGEEPSPFRGRSRSAPPNLWAAQRYGRELRRMSDEFVDSFKKGLPRPKSAGTATQMRQSSSWTRVFQSWWDRNLGRGSSAPSQ
modifications: left off: His6, N-terminal, state not stated | GST, C-terminal, kept
Random coil content [3]: 30% | α-helical content [3]: 10% | β-sheet content [3]: 37% | Proteolysis of recombinant BAD [4]: highly susceptible to proteolysis | Effect on kcat, K0.5 or Hill coefficient of GCK (BAD-GST) ([2]; BAD-GST 8 μM, variable glucose): does not alter the kcat, K0.5 or Hill coefficient of GCK | Stimulation of GCK activity (in words) ([2]; glucose 0.5–1.0 mM): small, but statistically significant extent
